This is an account of results in patent US20200347133A1 (INHIBRX, published 2020).

Substitutions are numbered along the chain they refer to.

The target of test [1] is T1, CD33m, truncated human CD33 protein expressed on transfected cells (human, UniProt P20138 140-259).
T1 construct: leader and transmembrane domain are not in it; also called truncated CD33
The test is described as follows: flow cytometry on cells transfected with truncated CD33m; apparent Kd, one-site fit. How it is done:
(§1) Binding of sdAbs to human CD33 was assessed by flow cytometry. […] MOLM-13 cells were transiently transfected with a plasmid encoding a sequence comprising “CD33M” (SEQ ID NO: 112) or a plasmid encoding a sequence comprising a truncated version, “CD33m” (SEQ ID NO: 113). The sequence encoded by the CD33M plasmid includes the leader sequence, full extracellular domain, transmembrane domain, and cytoplasmic domain. The sequence encoded by the CD33m plasmid includes the leader sequence, the membrane proximal IgC2 domain, and the transmembrane domain. Untransfected HEK 293 cells were used as CD33-negative cells. Each cell type was plated at 30,000 cells/well in FACS buffer (PBS 1% BSA, 0.1% NaN₃ pH 7.4) on a 96-well round-bottom plate. The sdAbs were diluted in FACS buffer in a 3-fold, 11 point serial dilution. The sdAb dilutions were added to the plated cells, and assay plates were incubated for 30 minutes at 4° C. After washing twice in 150 μL of FACS buffer, cells in each well were resuspended in 100 μL of 1:2000 Alexa Fluor 647-conjugated Anti-Human IgG secondary diluted in FACS buffer and incubated at 4° C. for 30 minutes. The cells were washed twice more, then bound antibody was detected by flow cytometry.
(§2) Flow cytometric analysis was performed on an Intellicyte iQue Plus and fluorescence was plotted as median fluorescence intensity. The apparent affinity (Kd, nM) was determined using one site binding non-linear regression in PRISM graph software.

The target in test [2] is T2, CD33M, full length human CD33 protein expressed on transfected cells (human, UniProt P20138 18-303).
T2 construct: also called full length CD33
T2 sequence (P20138 18-303): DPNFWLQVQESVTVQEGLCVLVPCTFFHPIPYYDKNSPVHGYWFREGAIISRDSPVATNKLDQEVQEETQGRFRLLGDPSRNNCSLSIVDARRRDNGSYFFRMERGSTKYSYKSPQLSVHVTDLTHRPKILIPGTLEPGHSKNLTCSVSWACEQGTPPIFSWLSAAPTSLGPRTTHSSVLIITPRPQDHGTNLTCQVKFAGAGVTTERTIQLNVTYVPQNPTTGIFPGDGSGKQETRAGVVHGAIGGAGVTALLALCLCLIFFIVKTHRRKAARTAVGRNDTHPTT
The test is described as follows: flow cytometry on cells labelled CD33M-HEK-293, anti-human IgG Alexa Fluor 647 secondary, median fluorescence. How it is done:
Binding of sdAbs to human CD33 was assessed by flow cytometry. […] […] The sequence encoded by the CD33M plasmid includes the leader sequence, full extracellular domain, transmembrane domain, and cytoplasmic domain. The sequence encoded by the CD33m plasmid includes the leader sequence, the membrane proximal IgC2 domain, and the transmembrane domain. Untransfected HEK 293 cells were used as CD33-negative cells. Each cell type was plated at 30,000 cells/well in FACS buffer (PBS 1% BSA, 0.1% NaN₃ pH 7.4) on a 96-well round-bottom plate. The sdAbs were diluted in FACS buffer in a 3-fold, 11 point serial dilution. The sdAb dilutions were added to the plated cells, and assay plates were incubated for 30 minutes at 4° C. After washing twice in 150 μL of FACS buffer, cells in each well were resuspended in 100 μL of 1:2000 Alexa Fluor 647-conjugated Anti-Human IgG secondary diluted in FACS buffer and incubated at 4° C. for 30 minutes. The cells were washed twice more, then bound antibody was detected by flow cytometry.
as §2
(In general: Flow cytometry measures light scatter and fluorescence of single cells or particles in a stream.)

Test [3] addresses T1, CD33m, truncated human CD33 protein …. The test is described as follows: flow cytometry on cells labelled CD33m-HEK-293, anti-human IgG Alexa Fluor 647 secondary, median fluorescence. The method, then: (§3) Binding of sdAbs to human CD33 was assessed by flow cytometry. […] MOLM-13 cells were transiently transfected with a plasmid encoding a sequence comprising “CD33M” (SEQ ID NO: 112) or a plasmid encoding a sequence comprising a truncated version, “CD33m” (SEQ ID NO: 113). The sequence encoded by the CD33M plasmid includes the leader sequence, full extracellular domain, transmembrane domain, and cytoplasmic domain. The sequence encoded by the CD33m plasmid includes the leader sequence, the membrane proximal IgC2 domain, and the transmembrane domain. Untransfected HEK 293 cells were used as CD33-negative cells. Each cell type was plated at 30,000 cells/well in FACS buffer (PBS 1% BSA, 0.1% NaN₃ pH 7.4) on a 96-well round-bottom plate. The sdAbs were diluted in FACS buffer in a 3-fold, 11 point serial dilution. The sdAb dilutions were added to the plated cells, and assay plates were incubated for 30 minutes at 4° C. […] The cells were washed twice more, then bound antibody was detected by flow cytometry.
as §2

For test [4], the target named is T2, CD33M, full length human CD33 protein …. The test is described as follows: flow cytometry on cells transfected with CD33M; apparent Kd, one-site fit. How it is done: as §1, §2
The target is the same in test [5]. The test is described as follows: flow cytometry on Molm-13 cells transfected with CD33 (CD33M per Table 3), anti-human IgG Alexa Fluor 647 secondary, median fluorescence. How it is done:
as §3, §2

For test [6] the target is unchanged. The test is described as follows: flow cytometry on Molm-13 cells transfected with CD33 (CD33M per Table 3), fluorescent anti-human IgG secondary, axis Median BL-1H.
For test [7], the target named is T1, CD33m, truncated human CD33 protein …. The test is described as follows: flow cytometry on cells transfected with truncated CD33m; apparent Kd, one-site fit; CD33m isoform, not CD33M. The method, then: as §3, §2

As usually defined, the EC50 (read off the curve) is the midpoint of the concentration-response curve. Low values mean an effect from little substance, high ones a need for much substance.

T1 sequence (P20138 140-259 limits assumed): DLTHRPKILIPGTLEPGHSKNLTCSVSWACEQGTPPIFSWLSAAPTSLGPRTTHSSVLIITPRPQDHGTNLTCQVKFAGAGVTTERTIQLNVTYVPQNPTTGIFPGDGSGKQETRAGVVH

B1: hzF02v18 sdAb (hzF02v18 VHH domain fused to human IgG1 xELL Fc region) (Fc fusion)
chain: EVQLVESGGGEVQPGGSLRLSCAASGSISSYNVMGWYRQAPGKQRELVAQINAYGDTNYANAVVGRFTISRDNAKNTVYLQMSSLRAEDTAVYYCNGQRMLENYTYRDQSWGQGTLVTVDKTHTCPPCPAPGGPSVFLFPPKPKDTLMISRTPEVTCVVVDVSHEDPEVKFNWYVDGVEVHNAKTKPREEQYNSTYRVVSVLTVLHQDWLNGKEYKCKVSNKALPAPIEKTISKAKGQPREPQVYTLPPSRDELTKNQVSLTCLVKGFYPSDIAVEWESNGQPENNYKTTPPVLDSDGSFFLYSKLTVDKSRWQQGNVFSCSVMHEALHNHYTQKSLSLSPGK
notes: VHH-Fc; no linker stated; also called hzF02v18-IgG1
On to B1, for which the Kd in test [1] was determined as 9.13 nM; in test [4], 14.8 nM. In addition, the concentration giving a half-maximal response (EC50 (read off the curve)) in test [2] is 10 to 100 nM; in test [3] it was approximately 8 nM.

B2: hz1C7v1 sdAb (hz1C7v1 VHH domain fused to human IgG1 xELL Fc region) (Fc fusion)
chain: EVQLVESGGGEVQPGGSLRLSCAASGRTFSGYIMGWFRQAPGKERELVARISGNNLSTEYAESVKGRFTISRDNAKNTLYLQMSSLRAEDTAVYYCAAEYDYSSGDFVYWGQGTLVTVDKTHTCPPCPAPGGPSVFLFPPKPKDTLMISRTPEVTCVVVDVSHEDPEVKFNWYVDGVEVHNAKTKPREEQYNSTYRVVSVLTVLHQDWLNGKEYKCKVSNKALPAPIEKTISKAKGQPREPQVYTLPPSRDELTKNQVSLTCLVKGFYPSDIAVEWESNGQPENNYKTTPPVLDSDGSFFLYSKLTVDKSRWQQGNVFSCSVMHEALHNHYTQKSLSLSPGK
notes: VHH-Fc; no linker stated; also called hz1C7v1-IgG1
B2: the half-maximal effective concentration (EC50 (read off the curve)) in test [5] is approximately 6 nM. Also, the Kd in test [4] was 6.25 nM.

B3: hz1C7v11 sdAb (hz1C7v11 VHH domain fused to human IgG1 xELL Fc region) (Fc fusion)
chain: B2 chain with S57A
notes: VHH-Fc; no linker stated; also called hz1C7v11-IgG1
Take B3: the Kd in test [4] is 5.45 nM. The “EC50 (read off the curve)” value in test [6] is approximately 5 nM.

B4: A07 sdAb (A07 VHH domain fused to human IgG1 xELL Fc region) (Fc fusion)
chain: QVQLVQSGGGLVQAGGSLTLSCAASRSSGIDVMGWYRQAPGKERELVAEISGVGDTNYAASLADRFTVSRDNAKNTVYLQMKNLKPEDTAVYYCNAHSFLDLVGAWGQGTQVTVDKTHTCPPCPAPGGPSVFLFPPKPKDTLMISRTPEVTCVVVDVSHEDPEVKFNWYVDGVEVHNAKTKPREEQYNSTYRVVSVLTVLHQDWLNGKEYKCKVSNKALPAPIEKTISKAKGQPREPQVYTLPPSRDELTKNQVSLTCLVKGFYPSDIAVEWESNGQPENNYKTTPPVLDSDGSFFLYSKLTVDKSRWQQGNVFSCSVMHEALHNHYTQKSLSLSPGK
notes: VHH-Fc; no linker stated
As to B4, the values for the Kd in test [7] and in test [4] were 19.9 nM and 53.5 nM, respectively.

B5: hzA07v4 sdAb (hzA07v4 VHH domain fused to human IgG1 xELL Fc region) (Fc fusion)
chain: B4 chain with Q1E, Q6E, L11E, A14P, T19R, K82S, N83S, K85R, P86A, Q111L
notes: VHH-Fc; no linker stated; also called hzA07v4-IgG1
For the molecule B5, the Kd in test [1] was 11.8 nM; in test [4], 56.6 nM. Besides, the “EC50 (read off the curve)” value in test [3] is approximately 9 nM.
